For series [1], the system named is HeLa Kyoto. Kind of series: solubility in G1/S (NP-40 vs SDS abundance) (log2 ratio); higher = more soluble. The settings on record: cell cycle stage: G1/S.
Series [2] relates to HeLa Kyoto. Kind of series: melting temperature (median over replicates), in situ; higher = more thermally stable.
The subject of series [3] is HeLa Kyoto. Put plainly: solubility change mitosis vs G1/S (difference of NP-40 vs SDS log2 ratios) (log2 ratio difference); higher = more soluble in mitosis.
Series [4] deals with HeLa Kyoto. Kind of series: thermal stability score vs G1/S (z-score of summed log2 fold changes over temperatures); higher = more thermally stable than in G1/S.
[5] abbreviates: cell cycle stage: early G1 (4.5 h after nocodazole release).
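Throughout, for melting temperature (median over replicates), in situ: HeLa Kyoto cells synchronized by double thymidine or nocodazole block, proteins quantified by TMT10plex mass spectrometry, three independent biological replicates.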
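Throughout, for solubility change mitosis vs G1/S (difference of NP-40 vs SDS log2 ratios): synchronized HeLa Kyoto cells (double thymidine block for G1/S, nocodazole release for mitosis), protein amounts in NP-40 versus SDS lysates quantified by mass spectrometry, three biological replicates.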
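Throughout, for solubility in G1/S (NP-40 vs SDS abundance): HeLa Kyoto cells arrested at G1/S by double thymidine block, proteins quantified by TMT10plex mass spectrometry in mild NP-40 versus SDS extracts, three biological replicates.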
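Throughout, for thermal stability score vs G1/S (z-score of summed log2 fold changes over temperatures): synchronized HeLa Kyoto cells, proteins quantified by TMT10plex mass spectrometry, three biological replicates, mitosis taken 0.5 h after nocodazole release, G1/S directly after double thymidine block.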

“MASQPPPPPKPWETRRIPGAGPGPGPGPTFQSADLGPTLMTRPGQPALTRVPPPILPRPSQQTGSSSVNTFRPAYSSFSSGYGAYGNSFYGGYSPYSYGYNGLGYNRLRVDDLPPSRFVQQAEESSRGAFQSIESIVHAFASVSMMMDATFSAVYNSFRAVLDVANHFSRLKIHFTKVFSAFALVRTIRYLYRRLQRMLGLRRGSENEDLWAESEGTVACLGAEDRAATSAKSWPIFLFFAVILGGPYLIWKLLSTHSDEVTDSINWASGEDDHVVARAEYDFAAVSEEEISFRAGDMLNLALKEQQPKVRGWLLASLDGQTTGLIPANYVKILGKRKGRKTVESSKVSKQQQSFTNPTLTKGATVADSLDEQEAAFESVFVETNKVPVAPDSIGKDGEKQDL [PEX13]”: the “solubility in G1/S (log2)” value in series [1] is -0.182. Moreover, the melting temperature in series [2] (cell cycle stage: G1/S) is 53.5 °C; in series [2] (cell cycle stage: mitosis), 53.4 °C. The “solubility change mitosis (log2)” value in series [3] stood at 0.116. Also, the figures for the thermal stability score in series [4] (setting [5]) and in series [4] (cell cycle stage: mitosis) were -2.51 and -2.78, respectively.

Consider “MASSEQAEQPSQPSSTPGSENVLPREPLIATAVKFLQNSRVRQSPLATRRAFLKKKGLTDEEIDMAFQQSGTAADEPSSLGPATQVVPVQPPHLISQPYSPAGSRWRDYGALAIIMAGIAFGFHQLYKKYLLPLILGGREDRKQLERMEAGLSELSGSVAQTVTQLQTTLASVQELLIQQQQKIQELAHELAAAKATTSTNWILESQNINELKSEINSLKGLLLNRRQFPPSPSAPKIPSWQIPVKSPSPSSPAAVNHHSSSDISPVSNESTSSSPGKEGHSPEGSTVTYHLLGPQEEGEGVVDVKGQVRMEVQGEEEKREDKEDEEDEEDDDVSHVDEEDCLGVQREDRRGGDGQINEQVEKLRRPEGASNESERD [PEX14]”, for which, in series [1], the “solubility in G1/S (log2)” value turned out to be 0.332. The melting temperature came out at 53.2 °C in series [2] (cell cycle stage: G1/S) and 53.6 °C in series [2] (cell cycle stage: mitosis). In addition, the “solubility change mitosis (log2)” value in series [3] stood at 0.164. Further, the thermal stability score in series [4] (setting [5]) turned out to be 0.978; in series [4] (cell cycle stage: mitosis), 1.36.

As for “MASTTSTKKMMEEATCSICLSLMTNPVSINCGHSYCHLCITDFFKNPSQKQLRQETFCCPQCRAPFHMDSLRPNKQLGSLIEALKETDQEMSCEEHGEQFHLFCEDEGQLICWRCERAPQHKGHTTALVEDVCQGYKEKLQKAVTKLKQLEDRCTEQKLSTAMRITKWKEKVQIQRQKIRSDFKNLQCFLHEEEKSYLWRLEKEEQQTLSRLRDYEAGLGLKSNELKSHILELEEKCQGSAQKLLQNVNDTLSRSWAVKLETSEAVSLELHTMCNVSKLYFDVKKMLRSHQVSVTLDPDTAHHELILSEDRRQVTRGYTQENQDTSSRRFTAFPCVLGCEGFTSGRRYFEVDVGEGTGWDLGVCMENVQRGTGMKQEPQSGFWTLRLCKKKGYVALTSPPTSLHLHEQPLLVGIFLDYEAGVVSFYNGNTGCHIFTFPKASFSDTLRPYFQVYQYSPLFLPPPGD [TRIM38]”, the “solubility in G1/S (log2)” value in series [1] is -0.661. In addition, the melting temperature in series [2] (cell cycle stage: mitosis) is 48.8 °C. Also, in series [3], the “solubility change mitosis (log2)” value was 0.155. Besides, the thermal stability score in series [4] (setting [5]) is -0.0637; in series [4] (cell cycle stage: mitosis), -0.487.

As for “MASVAAARAVPVGSGLRGLQRTLPLVVILGATGTGKSTLALQLGQRLGGEIVSADSMQVYEGLDIITNKVSAQEQRICRHHMISFVDPLVTNYTVVDFRNRATALIEDIFARDKIPIVVGGTNYYIESLLWKVLVNTKPQEMGTEKVIDRKVELEKEDGLVLHKRLSQVDPEMAAKLHPHDKRKVARSLQVFEETGISHSEFLHRQHTEEGGGPLGGPLKFSNPCILWLHADQAVLDERLDKRVDDMLAAGLLEELRDFHRRYNQKNVSENSQDYQHGIFQSIGFKEFHEYLITEGKCTLETSNQLLKKGIEALKQVTKRYARKQNRWVKNRFLSRPGPIVPPVYGLEVSDVSKWEESVLEPALEIVQSFIQGHKPTATPIKMPYNEAENKRSYHLCDLCDRIIIGDREWAAHIKSKSHLNQLKKRRRLDSDAVNTIESQSVSPDHNKEPKEKGSPGQNDQELKCSV [TRIT1]”, the “solubility in G1/S (log2)” value in series [1] amounted to 0.0861. The melting temperature in series [2] (cell cycle stage: G1/S) came out at 53.3 °C; in series [2] (cell cycle stage: mitosis), 49.1 °C. In series [3], the “solubility change mitosis (log2)” value was -0.137. The thermal stability score in series [4] (setting [5]) is -0.00673; in series [4] (cell cycle stage: mitosis), 0.208.

“MASVAVDPQPSVVTRVVNLPLVSSTYDLMSSAYLSTKDQYPYLKSVCEMAENGVKTITSVAMTSALPIIQKLEPQIAVANTYACKGLDRIEERLPILNQPSTQIVANAKGAVTGAKDAVTTTVTGAKDSVASTITGVMDKTKGAVTGSVEKTKSVVSGSINTVLGSRMMQLVSSGVENALTKSELLVEQYLPLTEEELEKEAKKVEGFDLVQKPSYYVRLGSLSTKLHSRAYQQALSRVKEAKQKSQQTISQLHSTVHLIEFARKNVYSANQKIQDAQDKLYLSWVEWKRSIGYDDTDESHCAEHIESRTLAIARNLTQQLQTTCHTLLSNIQGVPQNIQDQAKHMGVMAGDIYSVFRNAASFKEVSDSLLTSSKGQLQKMKESLDDVMDYLVNNTPLNWLVGPFYPQLTESQNAQDQGAEMDKSSQETQRSEHKTH [PLIN2]”: the “solubility in G1/S (log2)” value in series [1] was found to be 0.307. Further, the melting temperature stood at 53.2 °C in series [2] (cell cycle stage: G1/S) and 53.3 °C in series [2] (cell cycle stage: mitosis). For the same sequence, the “solubility change mitosis (log2)” value in series [3] turned out to be 0.0233. Further, the results for the thermal stability score in series [4] (setting [5]) and in series [4] (cell cycle stage: mitosis) were 0.285 and 0.347, respectively.

On to “MASVVLPSGSQCAAAAAAAAPPGLRLRLLLLLFSAAALIPTGDGQNLFTKDVTVIEGEVATISCQVNKSDDSVIQLLNPNRQTIYFRDFRPLKDSRFQLLNFSSSELKVSLTNVSISDEGRYFCQLYTDPPQESYTTITVLVPPRNLMIDIQKDTAVEGEEIEVNCTAMASKPATTIRWFKGNTELKGKSEVEEWSDMYTVTSQLMLKVHKEDDGVPVICQVEHPAVTGNLQTQRYLEVQYKPQVHIQMTYPLQGLTREGDALELTCEAIGKPQPVMVTWVRVDDEMPQHAVLSGPNLFINNLNKTDNGTYRCEASNIVGKAHSDYMLYVYDPPTTIPPPTTTTTTTTTTTTTILTIITDSRAGEEGSIRAVDHAVIGGVVAVVVFAMLCLLIILGRYFARHKGTYFTHEAKGADDAADADTAIINAEGGQNNSEEKKEYFI [CADM1]”, for which the “solubility in G1/S (log2)” value in series [1] is -0.145. In addition, the results for the melting temperature in series [2] (cell cycle stage: G1/S) and in series [2] (cell cycle stage: mitosis) were 61.3 °C and 58.9 °C, respectively. For the same sequence, the “solubility change mitosis (log2)” value in series [3] was -0.0334. Moreover, the thermal stability score in series [4] (setting [5]) is 0.625; in series [4] (cell cycle stage: mitosis) it was 0.622.

On to “MASVWQRLGFYASLLKRQLNGGPDVIKWERRVIPGCTRSIYSATGKWTKEYTLQTRKDVEKWWHQRIKEQASKISEADKSKPKFYVLSMFPYPSGKLHMGHVRVYTISDTIARFQKMRGMQVINPMGWDAFGLPAENAAVERNLHPQSWTQSNIKHMRKQLDRLGLCFSWDREITTCLPDYYKWTQYLFIKLYEAGLAYQKEALVNWDPVDQTVLANEQVDEHGCSWRSGAKVEQKYLRQWFIKTTAYAKAMQDALADLPEWYGIKGMQAHWIGDCVGCHLDFTLKVHGQATGEKLTAYTATPEAIYGTSHVAISPSHRLLHGHSSLKEALRMALVPGKDCLTPVMAVNMLTQQEVPVVILAKADLEGSLDSKIGIPSTSSEDTILAQTLGLAYSEVIETLPDGTERLSSSAEFTGMTRQDAFLALTQKARGKRVGGDVTSDKLKDWLISRQRYWGTPIPIVHCPVCGPTPVPLEDLPVTLPNIASFTGKGGPPLAMASEWVNCSCPRCKGAAKRETDTMDTFVDSAWYYFRYTDPHNPHSPFNTAVADYWMPVDLYIGGKEHAVMHLFYARFFSHFCHDQKMVKHREPFHKLLAQGLIKGQTFRLPSGQYLQREEVDLTGSVPVHAKTKEKLEVTWEKMSKSKHNGVDPEEVVEQYGIDTIRLYILFAAPPEKDILWDVKTDALPGVLRWQQRLWTLTTRFIEARASGKSPQPQLLSNKEKAEARKLWEYKNSVISQVTTHFTEDFSLNSAISQLMGLSNALSQASQSVILHSPEFEDALCALMVMAAPLAPHVTSEIWAGLALVPRKLCAHYTWDASVLLQAWPAVDPEFLQQPEVVQMAVLINNKACGKIPVPQQVARDQDKVHEFVLQSELGVRLLQGRSIKKSFLSPRTALINFLVQD [LARS2]”, for which the “solubility in G1/S (log2)” value in series [1] is -0.045. Besides, the melting temperature was found to be 49.7 °C in series [2] (cell cycle stage: G1/S) and 49.9 °C in series [2] (cell cycle stage: mitosis). The “solubility change mitosis (log2)” value in series [3] is -0.0972. Further, the thermal stability score is 0.0823 in series [4] (setting [5]) and 0.851 in series [4] (cell cycle stage: mitosis).

“MASYPYRQGCPGAAGQAPGAPPGSYYPGPPNSGGQYGSGLPPGGGYGGPAPGGPYGPPAGGGPYGHPNPGMFPSGTPGGPYGGAAPGGPYGQPPPSSYGAQQPGLYGQGGAPPNVDPEAYSWFQSVDSDHSGYISMKELKQALVNCNWSSFNDETCLMMINMFDKTKSGRIDVYGFSALWKFIQQWKNLFQQYDRDRSGSISYTELQQALSQMGYNLSPQFTQLLVSRYCPRSANPAMQLDRFIQVCTQLQVLTEAFREKDTAVQGNIRLSFEDFVTMTASRML [PEF1]”: the “solubility in G1/S (log2)” value in series [1] was -0.126. The melting temperature in series [2] (cell cycle stage: G1/S) worked out at 53.5 °C; in series [2] (cell cycle stage: mitosis), 53.2 °C. Moreover, in series [3], the “solubility change mitosis (log2)” value is 0.345. Further, the thermal stability score in series [4] (setting [5]) was -1.46; in series [4] (cell cycle stage: mitosis) it was -1.2.

Take “MATAAYEQLKLHITPEKFYVEACDDGADDVLTIDRVSTEVTLAVKKDVPPSAVTRPIFGILGTIHLVAGNYLIVITKKIKVGEFFSHVVWKATDFDVLSYKKTMLHLTDIQLQDNKTFLAMLNHVLNVDGFYFSTTYDLTHTLQRLSNTSPEFQEMSLLERADQRFVWNGHLLRELSAQPEVHRFALPVLHGFITMHSCSINGKYFDWILISRRSCFRAGVRYYVRGIDSEGHAANFVETEQIVHYNGSKASFVQTRGSIPVFWSQRPNLKYKPLPQISKVANHMDGFQRHFDSQVIIYGKQVIINLINQKGSEKPLEQTFATMVSSLGSGMMRYIAFDFHKECKNMRWDRLSILLDQVAEMQDELSYFLVDSAGQVVANQEGVFRSNCMDCLDRTNVIQSLLARRSLQAQLQRLGVLHVGQKLEEQDEFEKIYKNAWADNANACAKQYAGTGALKTDFTRTGKRTHLGLIMDGWNSMIRYYKNNFSDGFRQDSIDLFLGNYSVDELESHSPLSVPRDWKFLALPIIMVVAFSMCIICLLMAGDTWTETLAYVLFWGVASIGTFFIILYNGKDFVDAPRLVQKEKID [SACM1L]”: the “solubility in G1/S (log2)” value in series [1] is -0.172. Besides, the melting temperature in series [2] (cell cycle stage: G1/S) and in series [2] (cell cycle stage: mitosis) was 50.7 °C in each case. In addition, the “solubility change mitosis (log2)” value in series [3] is -0.111. Also, the thermal stability score in series [4] (setting [5]) is 1.77; in series [4] (cell cycle stage: mitosis), 2.34.

Values taken from the supplement of paper PMC5998384.
